Assay results reported in the RNAGym collection of RNA variant scans (doi:10.7554/elife.80360).

B1: Hairpin Ribozyme (parent)
chain: GUCCUCUUUCACGUGCGCGUGAAAGAGAGAAGUGAACCAGAGAAACACACGUUGUGGUAUAUUACCUGGUA

Variants of: B1
Experiment: self-cleavage, relative activity (ratio to wild type); higher = more cleavage; co-transcriptional

Variant | self-cleavage
GUCCACUUUCACGUGCGCGUGAAAGAGAGAAAUGAACCAGAGAAACACACGUUGUGGUAUAUUACCUGGUA | 0.158
GUCCCCUUUCACGUGCGCGUGAAAGAGAGAAGUGAACCAGUGAAACACACGUUGUGGUAUAUUACCUGGUA | 1.06
GUCCCCUUUCACGUGCGCGUGAAAGAGAGAAGUGAACCAGGGAAACACACGUUGUGGUAUAUUACCUGGUA | 0.569
GUCCACUUUCACGUGCGCGUGAAAGAGAGAAGUGAACCAGAGAAACACACGUUGUGGUAUAUAACCUGGUA | 0.206
GUCCACUUUCACGUGCGCGUGAAAGAGAGAAGUGAACCAGAGAAACACACGUUGUGGUAUAUCACCUGGUA | 0.196
GUCCACUUUCACGUGCGCGUGAAAGAGAGAAGUGAACCAGAGAAACACACGUUGUGGUACAUUACCUGGUA | 0.709
GUCCACUUUCACGUGCGCGUGAAAGAGAGAAGUGAACCAGAGAAACACACGUUGUGGUAAAUUACCUGGUA | 0.477
GUCCACUUUCACGUGCGCGUGAAAGAGAGAAGUGAACCAGAGAAACACACGUUGUGGUUUAUUACCUGGUA | 0.153
GUCCACUUUCACGUGCGCGUGAAAGAGAGAAGUGAACCAGAAAAACACACGUUGUGGUAUAUUACCUGGUA | 0.217
GUCCCCUUUCACGUGCGCGUGAAAGAGAGAAGUGAACCAGAGAAACACACGUUGUGGUAUCUUACCUGGUA | 0.128
GUCCACUUUCACGCGCGCGUGAAAGAGAGAAGUGAACCAGAGAAACACACGUUGUGGUAUAUUACCUGGUA | 0.343
GUCCACUUUCACGUGUGCGUGAAAGAGAGAAGUGAACCAGAGAAACACACGUUGUGGUAUAUUACCUGGUA | 0.475
GUCCACUUUCACGUGGGCGUGAAAGAGAGAAGUGAACCAGAGAAACACACGUUGUGGUAUAUUACCUGGUA | 0.231
GUCCACUUUCACGUGAGCGUGAAAGAGAGAAGUGAACCAGAGAAACACACGUUGUGGUAUAUUACCUGGUA | 0.281
GUCCACUUUCACGUGCGCGUGAAAGAGAGAAGUGAACCAGAGAAACACACGUUGUGGUAUAUUACGUGGUA | 0.176
GUCCACUUUCACGUGCGCGUGAAAGAGAGAAGUGAACCAGAGAAACACACGUUGUGGUAUAUUACUUGGUA | 0.153
GUCCACUUUCACGUGCGCGUGAAAGAGAGAAGUGAACCAGAGAAACACACGUUGUGGUAUAUUACCUGGUC | 0.884
GUCCACUUUCACGUGCGCGUGAAAGAGAGAAGUGAACCAGAGAAACAGACGUUGUGGUAUAUUACCUGGUA | 0.0819
GUCCACUUUCACGUGCGCGUGAAAGAGAGAAGUGAACAAGAGAAACACACGUUGUGGUAUAUUACCUGGUA | 0.142
GUCCACUUUCACGUGCGCGUGAAAGAAAGAAGUGAACCAGAGAAACACACGUUGUGGUAUAUUACCUGGUA | 0.179
GUCCACUUUCACGUGCGCGUGAAAGACAGAAGUGAACCAGAGAAACACACGUUGUGGUAUAUUACCUGGUA | 0.187
GUCCACUUUCACGUGCGCGUGAAAGAUAGAAGUGAACCAGAGAAACACACGUUGUGGUAUAUUACCUGGUA | 0.116
GUCCCCUUUCACGUGCGCGUGAGAGAGAGAAGUGAACCAGAGAAACACACGUUGUGGUAUAUUACCUGGUA | 0.683
GUCCCCUUUCACGUGCGCGUGACAGAGAGAAGUGAACCAGAGAAACACACGUUGUGGUAUAUUACCUGGUA | 0.692
GUCCACUUUCACGUUCGCGUGAAAGAGAGAAGUGAACCAGAGAAACACACGUUGUGGUAUAUUACCUGGUA | 0.495
GUCCACUUUCACGUACGCGUGAAAGAGAGAAGUGAACCAGAGAAACACACGUUGUGGUAUAUUACCUGGUA | 0.388

Variant | self-cleavage
GUCCACUUCCACGUGCGCGUGAAAGAGAGAAGUGAACCAGAGAAACACACGUUGUGGUAUAUUACCUGGUA | 0.179
GUCCCCUUUCACGUGCGCGUGAAAGAGAGAAGUGAACCAGAGGAACACACGUUGUGGUAUAUUACCUGGUA | 0.201
GUCCCCUUUCACGUGCGCGUGAAAGAGAGAAGUGAACCGGAGAAACACACGUUGUGGUAUAUUACCUGGUA | 0.192
GUCCACUUUCACGUGCGCGUGAAAGAGAGAAGUGAACCAGAGAAACACACAUUGUGGUAUAUUACCUGGUA | 0.393
GUCCCCUUUCACGUGCGCGUGAAAGUGAGAAGUGAACCAGAGAAACACACGUUGUGGUAUAUUACCUGGUA | 0.505
GUCCACUUUCACGUGCGCGUGAAAGAGAGAAGUGAACCAGAGAAACUCACGUUGUGGUAUAUUACCUGGUA | 0.0694
GUCCACUUUCACGUGCGCGUGAAAGAGAGAAGUGAACCAGAGAAACGCACGUUGUGGUAUAUUACCUGGUA | 0.102
GUCCCCUUUCCCGUGCGCGUGAAAGAGAGAAGUGAACCAGAGAAACACACGUUGUGGUAUAUUACCUGGUA | 0.764
GUCCCCUUUCACGUGCGCGUGAAAGAGAGAAGUGAACCAGAGACACACACGUUGUGGUAUAUUACCUGGUA | 0.0386
GUCCACUUUCACGUGCGCGUGAAAGAGAGAAGUGAACCAUAGAAACACACGUUGUGGUAUAUUACCUGGUA | 0.101
GUCCACUUUCACGUGCGCGUGAAAGAGAGAAGCGAACCAGAGAAACACACGUUGUGGUAUAUUACCUGGUA | 0.0952
GUCCCCUUUCACGUGCGCGUGAAAGAGAGAAGUGUACCAGAGAAACACACGUUGUGGUAUAUUACCUGGUA | 0.0604
GUCCCCUUUCACGUGCGCGUGAAAGAGAGAAGUGCACCAGAGAAACACACGUUGUGGUAUAUUACCUGGUA | 0.732
GUCCCCUUUCACGUGCGCGUGAAAGAGAGAAGUGAACCAGAGAAACACACGUUGUGGUAUAUUACCUGGUA | 0.648
GUCCACUUUCACGUGCGCGUGAAAGAGAGAAGUGAACCAGAGAAACACACGUUGUGGUAUCUUACCUGGUA | 0.088
GUCCACUUUCACUUGCGCGUGAAAGAGAGAAGUGAACCAGAGAAACACACGUUGUGGUAUAUUACCUGGUA | 0.302
GUCCACUUUCACCUGCGCGUGAAAGAGAGAAGUGAACCAGAGAAACACACGUUGUGGUAUAUUACCUGGUA | 0.19
GUCCCCUUUCACGUGCGCGUGAAAGAGAGAAGUGAACCAGAGAAACACUCGUUGUGGUAUAUUACCUGGUA | 0.143
GUCCACUUUCACGUGCGCGUGAAAGAGAGAAGUGAACCAGAGAAACACACGUUGUGUUAUAUUACCUGGUA | 0.102
GUCCACUUUCACGUGCGCGAGAAAGAGAGAAGUGAACCAGAGAAACACACGUUGUGGUAUAUUACCUGGUA | 0.315
GUCCACUAUCACGUGCGCGUGAAAGAGAGAAGUGAACCAGAGAAACACACGUUGUGGUAUAUUACCUGGUA | 0.285
GUCCACUGUCACGUGCGCGUGAAAGAGAGAAGUGAACCAGAGAAACACACGUUGUGGUAUAUUACCUGGUA | 0.261
GUCCACUCUCACGUGCGCGUGAAAGAGAGAAGUGAACCAGAGAAACACACGUUGUGGUAUAUUACCUGGUA | 0.141
GUCCACUUUCACGUGCGCGUGAAAGAGAGAAGUGAACCAGAGAAAUACACGUUGUGGUAUAUUACCUGGUA | 0.0644
GUCCACUUUCACGUGCGCGUGAAAGAGAGAAGUGAACCAGAGAAAAACACGUUGUGGUAUAUUACCUGGUA | 0.16
GUCCCCUUUCACGUGCGCGUGAAAGAGAGAAGUGAACCAGAGAAACACACGUUGUGGUCUAUUACCUGGUA | 0.105

Variant | self-cleavage
GUCCACUUUUACGUGCGCGUGAAAGAGAGAAGUGAACCAGAGAAACACACGUUGUGGUAUAUUACCUGGUA | 0.333
GUCCACGUUCACGUGCGCGUGAAAGAGAGAAGUGAACCAGAGAAACACACGUUGUGGUAUAUUACCUGGUA | 0.253
GUCCAAUUUCACGUGCGCGUGAAAGAGAGAAGUGAACCAGAGAAACACACGUUGUGGUAUAUUACCUGGUA | 0.337
GUCCCCUUUCACGUGCGCGUGAAAGAGAGAAGUGACCCAGAGAAACACACGUUGUGGUAUAUUACCUGGUA | 0.576
GUCCCCUUUCACGUGCGCGUGAAAGAGAGAAGUGAGCCAGAGAAACACACGUUGUGGUAUAUUACCUGGUA | 0.502
GUCCACUUUCACGUGCGCGUGAAAGAGAGAAGUGAACCAGAGAAACACACGUUGUGGUAUAUUUCCUGGUA | 0.133
GUCCACUUUCACGUGCGCGUGAAAGAGAGAAGUGAACCAGAGAAACACACGUUGUGGUAUAUUCCCUGGUA | 0.151
GUCCACUUUCAAGUGCGCGUGAAAGAGAGAAGUGAACCAGAGAAACACACGUUGUGGUAUAUUACCUGGUA | 0.273
GUCCACUUUCAGGUGCGCGUGAAAGAGAGAAGUGAACCAGAGAAACACACGUUGUGGUAUAUUACCUGGUA | 0.266
GUCCACUUUCACGUGCGCGUGAAAGAGAGAAGUGAACCAGAGAAACACACGUUGUGGUAUAGUACCUGGUA | 0.11
GUCCCCUUUCACGUGCGCGUGAAGGAGAGAAGUGAACCAGAGAAACACACGUUGUGGUAUAUUACCUGGUA | 0.453
GUCCCCUUUCACGUGCGCGUGAACGAGAGAAGUGAACCAGAGAAACACACGUUGUGGUAUAUUACCUGGUA | 0.483
GUCCACUUUCACGUGCGCGUGAAAGAGAGAAGUGAACCAGAGAAACACUCGUUGUGGUAUAUUACCUGGUA | 0.0811
GUCCACUUUCACGUGCGCGUGAAAGAGAGAAGUGAACCAGAGAAACACCCGUUGUGGUAUAUUACCUGGUA | 0.124
GUCCACUUUCACGUGCGCGUGAAAGAGAGAAGUGAACCAGAGAAACACACGUCGUGGUAUAUUACCUGGUA | 0.452
GUCCACUUUCACGUGCGCGUGAAAGAGAGAAGUGAACCAGAGAAACACACGUAGUGGUAUAUUACCUGGUA | 0.221
GUCCACUUUCACGUGCGCGUGAAAGAGAGAAGUGAACCAGAGAAACACACGUUGUGGUAUAUUACCUUGUA | 0.154
GUCCACUUUCACGUGCCCGUGAAAGAGAGAAGUGAACCAGAGAAACACACGUUGUGGUAUAUUACCUGGUA | 0.204
GUCCACUUUCACGUGCACGUGAAAGAGAGAAGUGAACCAGAGAAACACACGUUGUGGUAUAUUACCUGGUA | 0.435
GUCCACUUUCACGUGCGCGUGAAAGAGAGAAGUGAAGCAGAGAAACACACGUUGUGGUAUAUUACCUGGUA | 0.18
GUCCCCUUUCACGUGCGCGUGAAAGAGAGAAGUGAACCAGAGAAACUCACGUUGUGGUAUAUUACCUGGUA | 0.166
GUCCCCUUUCACGUGCGCGUGAAAGAGAGAAGUGAACCAGAGAAACCCACGUUGUGGUAUAUUACCUGGUA | 0.208
GUCCACUUUCACGUGCGCGUGAAAGAGAGAAGUGAACCAGAGAAACACAUGUUGUGGUAUAUUACCUGGUA | 0.291
GUCCACUUUCACGUGCGCGUGAAAGAGAGAAGUGAACCAGAGAAACACACGUUGCGGUAUAUUACCUGGUA | 0.157
